Assay [1] concerns the target T1, rat µ opioid receptor (rat), P33535.
T1 chain: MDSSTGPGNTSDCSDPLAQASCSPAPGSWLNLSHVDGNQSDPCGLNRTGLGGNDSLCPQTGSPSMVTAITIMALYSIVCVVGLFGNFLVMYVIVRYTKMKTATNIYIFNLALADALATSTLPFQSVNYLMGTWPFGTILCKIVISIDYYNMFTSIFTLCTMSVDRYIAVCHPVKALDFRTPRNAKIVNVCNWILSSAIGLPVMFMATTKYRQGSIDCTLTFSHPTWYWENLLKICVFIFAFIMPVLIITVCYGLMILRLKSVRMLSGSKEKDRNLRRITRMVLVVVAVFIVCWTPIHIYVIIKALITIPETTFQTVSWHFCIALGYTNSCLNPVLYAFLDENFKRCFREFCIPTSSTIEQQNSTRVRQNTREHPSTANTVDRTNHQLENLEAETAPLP
Briefly: saturation binding, COS-7 membranes.

Assay [2] shares this target. The experiment in a line: competition vs [3H]DAMGO, COS-7 membranes.
Assay [3] deals with cloned human µ opioid receptor (human), P35372. Briefly: saturation binding, Scatchard analysis, COS-7 membranes.
The target in assay [4] is T2, mouse delta opioid receptor (mORD1) (mouse), P32300.
T2 chain: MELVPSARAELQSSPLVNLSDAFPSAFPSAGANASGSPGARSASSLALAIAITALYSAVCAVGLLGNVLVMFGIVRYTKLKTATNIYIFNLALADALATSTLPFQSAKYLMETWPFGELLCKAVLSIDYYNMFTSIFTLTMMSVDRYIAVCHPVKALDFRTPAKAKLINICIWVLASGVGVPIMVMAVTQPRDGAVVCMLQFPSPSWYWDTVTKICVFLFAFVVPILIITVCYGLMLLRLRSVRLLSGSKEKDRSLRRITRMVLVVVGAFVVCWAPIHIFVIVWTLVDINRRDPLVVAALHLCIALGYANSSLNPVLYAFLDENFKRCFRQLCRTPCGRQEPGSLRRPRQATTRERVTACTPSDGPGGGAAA
Briefly: radioligand binding, COS-7 membranes.

Assay [5] addresses T2, mouse delta opioid receptor (mORD1) …. The experiment in a line: competition vs [3H]naltrindole, COS-1 membranes.
For assay [6] the target is unchanged. The experiment in a line: competition vs [3H]naltrindole, CHO-DG44 membranes.
The target of assay [7] is T3, D128N mutant mouse delta opioid receptor (mouse), P32300.
T3 chain: T2 chain with D128N
The experiment in a line: cell-based or functional assay.

For assay [8], the target named is T2, mouse delta opioid receptor (mORD1) …. Briefly: cell-based or functional assay.
Assay [9] addresses T4, κ1-78/δ70-372 chimeric opioid receptor (mouse).
T4 chain: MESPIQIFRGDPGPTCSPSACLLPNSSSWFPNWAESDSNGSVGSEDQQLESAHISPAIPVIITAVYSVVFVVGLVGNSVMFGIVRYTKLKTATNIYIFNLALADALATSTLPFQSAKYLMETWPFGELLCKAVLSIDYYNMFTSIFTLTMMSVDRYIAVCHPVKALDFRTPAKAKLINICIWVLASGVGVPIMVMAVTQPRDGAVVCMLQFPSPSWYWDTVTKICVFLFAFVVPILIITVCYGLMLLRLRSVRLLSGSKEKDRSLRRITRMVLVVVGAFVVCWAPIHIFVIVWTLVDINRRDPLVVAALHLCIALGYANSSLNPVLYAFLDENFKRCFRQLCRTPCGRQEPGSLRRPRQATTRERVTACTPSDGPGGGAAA
Briefly: competition vs [3H]DPDPE, COS-7 membranes.

Assay [10] deals with T5, H278N mutant mouse delta opioid receptor (mouse), P32300.
T5 chain: T2 chain with H278N
The experiment in a line: competition vs 3H-naltrindole, COS-7 membranes.

The results in this text go back to US20030211537A1.

Where a chain is given by its changes, count along the chain named. Non-standard residues stand in square brackets, D forms with d. No end group written: not given here.

Chain of cloned human µ opioid receptor (human), P35372 (P35372 whole entry): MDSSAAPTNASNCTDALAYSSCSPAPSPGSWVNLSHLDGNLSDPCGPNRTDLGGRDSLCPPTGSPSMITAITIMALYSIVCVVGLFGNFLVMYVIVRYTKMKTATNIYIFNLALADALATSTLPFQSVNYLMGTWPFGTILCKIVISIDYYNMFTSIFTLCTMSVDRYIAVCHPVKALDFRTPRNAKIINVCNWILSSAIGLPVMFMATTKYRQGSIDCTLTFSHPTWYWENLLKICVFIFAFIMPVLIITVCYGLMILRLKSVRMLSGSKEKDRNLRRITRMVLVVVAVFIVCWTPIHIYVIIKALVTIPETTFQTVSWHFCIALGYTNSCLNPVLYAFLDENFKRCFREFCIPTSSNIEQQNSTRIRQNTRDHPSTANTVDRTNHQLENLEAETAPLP

One may read the Kd as the constant that tells how readily two partners part at equilibrium. Read a low Kd as a tighter complex. For orientation: Ki means a measure of affinity in units of concentration, obtained from inhibition or displacement. Read a low Ki as tighter binding. Consider YAGFG (modifications not checked) [[D-Ala2,MePhe4,Gly-ol5]enkephalin (DAMGO)], for which the Kd in [1] is 0.57 nM; in [3], 1 nM. In [2], the Ki is 2 nM.

YCGFC (modifications not checked) [[D-Pen2, D-Pen5]enkephalin (DPDPE)] registered an average binding (fmol/mg protein) in [4] of 1990.

The term IC50 denotes the midpoint of a concentration-inhibition curve. On to YAGFL (modifications not checked) [DADL], for which the Ki turned out to be 16 nM in assay [2] and 0.74 nM in [6]. In assay [5], this molecule yielded an IC50 of 20 nM.

As for Y[dS]GFLT [[D-Ser2, Leu5] enkephalin-Thr6 (DSLET)], the EC50 to inhibit forskolin-stimulated cAMP accumulation in assay [7] turned out to be 30 nM. Further, in assay [8], the inhibition of forskolin-stimulated cAMP formation came to 70%. The IC50 in assay [9] was 2 nM. The same molecule returned an inhibition constant (Ki) in assay [10] of 0.5 nM.
